Assay results reported in patent publication US20240279278A1, “NMU RECEPTOR 2 AGONISTS” (Boehringer Ingelheim International GmbH, priority 2023, published 2024).

T1: human neuromedin U receptor 1 (human, UniProt Q9HB89 24-426)
T1 sequence (looked up): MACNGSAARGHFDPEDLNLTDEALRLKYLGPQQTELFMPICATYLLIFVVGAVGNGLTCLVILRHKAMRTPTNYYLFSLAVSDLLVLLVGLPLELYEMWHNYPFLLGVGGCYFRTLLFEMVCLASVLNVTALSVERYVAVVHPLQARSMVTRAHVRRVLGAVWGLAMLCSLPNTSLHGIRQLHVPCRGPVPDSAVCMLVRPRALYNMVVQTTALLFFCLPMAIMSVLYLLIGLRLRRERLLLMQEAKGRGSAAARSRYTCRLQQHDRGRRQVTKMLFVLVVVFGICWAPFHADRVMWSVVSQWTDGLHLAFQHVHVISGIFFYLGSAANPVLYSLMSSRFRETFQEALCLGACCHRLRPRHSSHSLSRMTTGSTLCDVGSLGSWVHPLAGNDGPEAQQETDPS

B1: C20DA-gGlu3-Sar15-AEPipAc-Tyr-Phe-NMeLeu-Nle-Arg-NMeAla-Arg-Gly-NH2 (peptide)
peptide: EEEXXXXXXXXXXXXXXXXYFLXRARG
HELM: PEPTIDE1{[O=C(O)CCCCCCCCCCCCCCCCCCC(=O)[*:2]].[gGlu].[gGlu].[gGlu].[Sar].[Sar].[Sar].[Sar].[Sar].[Sar].[Sar].[Sar].[Sar].[Sar].[Sar].[Sar].[Sar].[Sar].[Sar].[O=C(CN1CCN(CCN[*:1])CC1)[*:2]].Y.F.[meL].[Nle].R.[meA].R.G.[am]}$$$$V2.0
SMILES: CCCC[C@H](NC(=O)[C@H](CC(C)C)N(C)C(=O)[C@H](Cc1ccccc1)NC(=O)[C@H](Cc1ccc(O)cc1)NC(=O)CN1CCN(CCNC(=O)CN(C)C(=O)CN(C)C(=O)CN(C)C(=O)CN(C)C(=O)CN(C)C(=O)CN(C)C(=O)CN(C)C(=O)CN(C)C(=O)CN(C)C(=O)CN(C)C(=O)CN(C)C(=O)CN(C)C(=O)CN(C)C(=O)CN(C)C(=O)CN(C)C(=O)CC[C@H](NC(=O)CC[C@H](NC(=O)CC[C@H](NC(=O)CCCCCCCCCCCCCCCCCCC(=O)O)C(=O)O)C(=O)O)C(=O)O)CC1)C(=O)N[C@@H](CCCNC(=N)N)C(=O)N(C)[C@@H](C)C(=O)N[C@@H](CCCNC(=N)N)C(=O)NCC(N)=O
B2: C18DA-gGlu3-Sar15-AEPipAc-Tyr-Phe-NMeLeu-Nle-Arg-NMeAla-Arg-Gly-NH2 (peptide)
peptide: EEEXXXXXXXXXXXXXXXXYFLXRARG
HELM: PEPTIDE1{[O=C(O)CCCCCCCCCCCCCCCCC(=O)[*:2]].[gGlu].[gGlu].[gGlu].[Sar].[Sar].[Sar].[Sar].[Sar].[Sar].[Sar].[Sar].[Sar].[Sar].[Sar].[Sar].[Sar].[Sar].[Sar].[O=C(CN1CCN(CCN[*:1])CC1)[*:2]].Y.F.[meL].[Nle].R.[meA].R.G.[am]}$$$$V2.0
SMILES: CCCC[C@H](NC(=O)[C@H](CC(C)C)N(C)C(=O)[C@H](Cc1ccccc1)NC(=O)[C@H](Cc1ccc(O)cc1)NC(=O)CN1CCN(CCNC(=O)CN(C)C(=O)CN(C)C(=O)CN(C)C(=O)CN(C)C(=O)CN(C)C(=O)CN(C)C(=O)CN(C)C(=O)CN(C)C(=O)CN(C)C(=O)CN(C)C(=O)CN(C)C(=O)CN(C)C(=O)CN(C)C(=O)CN(C)C(=O)CN(C)C(=O)CC[C@H](NC(=O)CC[C@H](NC(=O)CC[C@H](NC(=O)CCCCCCCCCCCCCCCCC(=O)O)C(=O)O)C(=O)O)C(=O)O)CC1)C(=O)N[C@@H](CCCNC(=N)N)C(=O)N(C)[C@@H](C)C(=O)N[C@@H](CCCNC(=N)N)C(=O)NCC(N)=O
B3: C18DA-gGlu3-Sar15-AEPipAc-Tyr-Phe-NMeLeu-Nle-Orn-Pro-Arg-Gly-NH2 (peptide)
peptide: EEEXXXXXXXXXXXXXXXXYFLXXPRG
HELM: PEPTIDE1{[O=C(O)CCCCCCCCCCCCCCCCC(=O)[*:2]].[gGlu].[gGlu].[gGlu].[Sar].[Sar].[Sar].[Sar].[Sar].[Sar].[Sar].[Sar].[Sar].[Sar].[Sar].[Sar].[Sar].[Sar].[Sar].[O=C(CN1CCN(CCN[*:1])CC1)[*:2]].Y.F.[meL].[Nle].[Orn].P.R.G.[am]}$$$$V2.0
SMILES: CCCC[C@H](NC(=O)[C@H](CC(C)C)N(C)C(=O)[C@H](Cc1ccccc1)NC(=O)[C@H](Cc1ccc(O)cc1)NC(=O)CN1CCN(CCNC(=O)CN(C)C(=O)CN(C)C(=O)CN(C)C(=O)CN(C)C(=O)CN(C)C(=O)CN(C)C(=O)CN(C)C(=O)CN(C)C(=O)CN(C)C(=O)CN(C)C(=O)CN(C)C(=O)CN(C)C(=O)CN(C)C(=O)CN(C)C(=O)CN(C)C(=O)CC[C@H](NC(=O)CC[C@H](NC(=O)CC[C@H](NC(=O)CCCCCCCCCCCCCCCCC(=O)O)C(=O)O)C(=O)O)C(=O)O)CC1)C(=O)N[C@@H](CCCN)C(=O)N1CCC[C@H]1C(=O)N[C@@H](CCCNC(=N)N)C(=O)NCC(N)=O
B4: C18DA-gGlu3-Sar15-AEPipAc-Tyr-Phe-NMeLeu-Nle-Orn-NMeAla-Arg-Gly-NH2 (peptide)
peptide: EEEXXXXXXXXXXXXXXXXYFLXXARG
HELM: PEPTIDE1{[O=C(O)CCCCCCCCCCCCCCCCC(=O)[*:2]].[gGlu].[gGlu].[gGlu].[Sar].[Sar].[Sar].[Sar].[Sar].[Sar].[Sar].[Sar].[Sar].[Sar].[Sar].[Sar].[Sar].[Sar].[Sar].[O=C(CN1CCN(CCN[*:1])CC1)[*:2]].Y.F.[meL].[Nle].[Orn].[meA].R.G.[am]}$$$$V2.0
SMILES: CCCC[C@H](NC(=O)[C@H](CC(C)C)N(C)C(=O)[C@H](Cc1ccccc1)NC(=O)[C@H](Cc1ccc(O)cc1)NC(=O)CN1CCN(CCNC(=O)CN(C)C(=O)CN(C)C(=O)CN(C)C(=O)CN(C)C(=O)CN(C)C(=O)CN(C)C(=O)CN(C)C(=O)CN(C)C(=O)CN(C)C(=O)CN(C)C(=O)CN(C)C(=O)CN(C)C(=O)CN(C)C(=O)CN(C)C(=O)CN(C)C(=O)CC[C@H](NC(=O)CC[C@H](NC(=O)CC[C@H](NC(=O)CCCCCCCCCCCCCCCCC(=O)O)C(=O)O)C(=O)O)C(=O)O)CC1)C(=O)N[C@@H](CCCN)C(=O)N(C)[C@@H](C)C(=O)N[C@@H](CCCNC(=N)N)C(=O)NCC(N)=O
B5: C20DA-gGlu3-Sar12-AEPipAc-Tyr-Phe-NMeLeu-Nle-Dbu-Pro-Arg-Gly-NH2 (peptide)
peptide: EEEXXXXXXXXXXXXXYFLXXPRG
HELM: PEPTIDE1{[O=C(O)CCCCCCCCCCCCCCCCCCC(=O)[*:2]].[gGlu].[gGlu].[gGlu].[Sar].[Sar].[Sar].[Sar].[Sar].[Sar].[Sar].[Sar].[Sar].[Sar].[Sar].[Sar].[O=C(CN1CCN(CCN[*:1])CC1)[*:2]].Y.F.[meL].[Nle].[Dab].P.R.G.[am]}$$$$V2.0
SMILES: CCCC[C@H](NC(=O)[C@H](CC(C)C)N(C)C(=O)[C@H](Cc1ccccc1)NC(=O)[C@H](Cc1ccc(O)cc1)NC(=O)CN1CCN(CCNC(=O)CN(C)C(=O)CN(C)C(=O)CN(C)C(=O)CN(C)C(=O)CN(C)C(=O)CN(C)C(=O)CN(C)C(=O)CN(C)C(=O)CN(C)C(=O)CN(C)C(=O)CN(C)C(=O)CN(C)C(=O)CC[C@H](NC(=O)CC[C@H](NC(=O)CC[C@H](NC(=O)CCCCCCCCCCCCCCCCCCC(=O)O)C(=O)O)C(=O)O)C(=O)O)CC1)C(=O)N[C@@H](CCN)C(=O)N1CCC[C@H]1C(=O)N[C@@H](CCCNC(=N)N)C(=O)NCC(N)=O
B6: C20DA-gGlu3-Sar15-AEPipAc-Tyr-Phe-NMeLeu-Nle-Arg-Pro-Arg-Gly-NH2 (peptide)
peptide: EEEXXXXXXXXXXXXXXXXYFLXRPRG
HELM: PEPTIDE1{[O=C(O)CCCCCCCCCCCCCCCCCCC(=O)[*:2]].[gGlu].[gGlu].[gGlu].[Sar].[Sar].[Sar].[Sar].[Sar].[Sar].[Sar].[Sar].[Sar].[Sar].[Sar].[Sar].[Sar].[Sar].[Sar].[O=C(CN1CCN(CCN[*:1])CC1)[*:2]].Y.F.[meL].[Nle].R.P.R.G.[am]}$$$$V2.0
SMILES: CCCC[C@H](NC(=O)[C@H](CC(C)C)N(C)C(=O)[C@H](Cc1ccccc1)NC(=O)[C@H](Cc1ccc(O)cc1)NC(=O)CN1CCN(CCNC(=O)CN(C)C(=O)CN(C)C(=O)CN(C)C(=O)CN(C)C(=O)CN(C)C(=O)CN(C)C(=O)CN(C)C(=O)CN(C)C(=O)CN(C)C(=O)CN(C)C(=O)CN(C)C(=O)CN(C)C(=O)CN(C)C(=O)CN(C)C(=O)CN(C)C(=O)CC[C@H](NC(=O)CC[C@H](NC(=O)CC[C@H](NC(=O)CCCCCCCCCCCCCCCCCCC(=O)O)C(=O)O)C(=O)O)C(=O)O)CC1)C(=O)N[C@@H](CCCNC(=N)N)C(=O)N1CCC[C@H]1C(=O)N[C@@H](CCCNC(=N)N)C(=O)NCC(N)=O
B7: C18DA-gGlu3-Sar12-AEPipAc-Tyr-Phe-NMeLeu-Nle-Arg-NMeAla-Arg-Gly-NH2 (peptide)
peptide: EEEXXXXXXXXXXXXXYFLXRARG
HELM: PEPTIDE1{[O=C(O)CCCCCCCCCCCCCCCCC(=O)[*:2]].[gGlu].[gGlu].[gGlu].[Sar].[Sar].[Sar].[Sar].[Sar].[Sar].[Sar].[Sar].[Sar].[Sar].[Sar].[Sar].[O=C(CN1CCN(CCN[*:1])CC1)[*:2]].Y.F.[meL].[Nle].R.[meA].R.G.[am]}$$$$V2.0
SMILES: CCCC[C@H](NC(=O)[C@H](CC(C)C)N(C)C(=O)[C@H](Cc1ccccc1)NC(=O)[C@H](Cc1ccc(O)cc1)NC(=O)CN1CCN(CCNC(=O)CN(C)C(=O)CN(C)C(=O)CN(C)C(=O)CN(C)C(=O)CN(C)C(=O)CN(C)C(=O)CN(C)C(=O)CN(C)C(=O)CN(C)C(=O)CN(C)C(=O)CN(C)C(=O)CN(C)C(=O)CC[C@H](NC(=O)CC[C@H](NC(=O)CC[C@H](NC(=O)CCCCCCCCCCCCCCCCC(=O)O)C(=O)O)C(=O)O)C(=O)O)CC1)C(=O)N[C@@H](CCCNC(=N)N)C(=O)N(C)[C@@H](C)C(=O)N[C@@H](CCCNC(=N)N)C(=O)NCC(N)=O
B8: C18DA-gGlu3-Sar12-AEPipAc-Tyr-Phe-NMeLeu-Nle-Orn-NMeAla-Arg-Gly-NH2 (peptide)
peptide: EEEXXXXXXXXXXXXXYFLXXARG
HELM: PEPTIDE1{[O=C(O)CCCCCCCCCCCCCCCCC(=O)[*:2]].[gGlu].[gGlu].[gGlu].[Sar].[Sar].[Sar].[Sar].[Sar].[Sar].[Sar].[Sar].[Sar].[Sar].[Sar].[Sar].[O=C(CN1CCN(CCN[*:1])CC1)[*:2]].Y.F.[meL].[Nle].[Orn].[meA].R.G.[am]}$$$$V2.0
SMILES: CCCC[C@H](NC(=O)[C@H](CC(C)C)N(C)C(=O)[C@H](Cc1ccccc1)NC(=O)[C@H](Cc1ccc(O)cc1)NC(=O)CN1CCN(CCNC(=O)CN(C)C(=O)CN(C)C(=O)CN(C)C(=O)CN(C)C(=O)CN(C)C(=O)CN(C)C(=O)CN(C)C(=O)CN(C)C(=O)CN(C)C(=O)CN(C)C(=O)CN(C)C(=O)CN(C)C(=O)CC[C@H](NC(=O)CC[C@H](NC(=O)CC[C@H](NC(=O)CCCCCCCCCCCCCCCCC(=O)O)C(=O)O)C(=O)O)C(=O)O)CC1)C(=O)N[C@@H](CCCN)C(=O)N(C)[C@@H](C)C(=O)N[C@@H](CCCNC(=N)N)C(=O)NCC(N)=O

The binders below were run against T1, human neuromedin U receptor 1 (assay: cell-based or functional assay).
With B1 the EC50 (hNMUR1) buffer was 720 nM.
B2 showed an EC50 (hNMUR1) buffer of 1100 nM.
For B3, the EC50 (hNMUR1) buffer was > 1000 nM.
In the case of B4, the EC50 (hNMUR1) buffer is reported as > 1000 nM.
For B5, the EC50 (hNMUR1) buffer was 1000 nM.
B6 gave an EC50 (hNMUR1) buffer of 220 nM.
B7 showed an EC50 (hNMUR1) buffer of 1000 nM.
In the case of B8, the EC50 (hNMUR1) buffer is reported as > 1000 nM.
